Values joined by “and” are separate entries in the source; they are usually repeats but may differ in a detail not shown here. Equal entries are not always repeated.
How the values were obtained:
Assay in all cases: SPR; BIAcore X-100, room temperature; hAPN/pAPN WT or mutant immobilised on CM5 chips via amine coupling; serially diluted PDCoV RBD WT or mutant flowed over in HEPES buffer (0.01 M HEPES, 0.15 M NaCl, 0.5% surfactant P20, 3 mM EDTA, pH 7.4); steady-state affinity model; each of two experiments listed
[1] = target: human aminopeptidase N ectodomain Y316A (human) (UniProt P15144)
Sequence of human aminopeptidase N ectodomain Y316A (human) (P15144 62-963 Y316A): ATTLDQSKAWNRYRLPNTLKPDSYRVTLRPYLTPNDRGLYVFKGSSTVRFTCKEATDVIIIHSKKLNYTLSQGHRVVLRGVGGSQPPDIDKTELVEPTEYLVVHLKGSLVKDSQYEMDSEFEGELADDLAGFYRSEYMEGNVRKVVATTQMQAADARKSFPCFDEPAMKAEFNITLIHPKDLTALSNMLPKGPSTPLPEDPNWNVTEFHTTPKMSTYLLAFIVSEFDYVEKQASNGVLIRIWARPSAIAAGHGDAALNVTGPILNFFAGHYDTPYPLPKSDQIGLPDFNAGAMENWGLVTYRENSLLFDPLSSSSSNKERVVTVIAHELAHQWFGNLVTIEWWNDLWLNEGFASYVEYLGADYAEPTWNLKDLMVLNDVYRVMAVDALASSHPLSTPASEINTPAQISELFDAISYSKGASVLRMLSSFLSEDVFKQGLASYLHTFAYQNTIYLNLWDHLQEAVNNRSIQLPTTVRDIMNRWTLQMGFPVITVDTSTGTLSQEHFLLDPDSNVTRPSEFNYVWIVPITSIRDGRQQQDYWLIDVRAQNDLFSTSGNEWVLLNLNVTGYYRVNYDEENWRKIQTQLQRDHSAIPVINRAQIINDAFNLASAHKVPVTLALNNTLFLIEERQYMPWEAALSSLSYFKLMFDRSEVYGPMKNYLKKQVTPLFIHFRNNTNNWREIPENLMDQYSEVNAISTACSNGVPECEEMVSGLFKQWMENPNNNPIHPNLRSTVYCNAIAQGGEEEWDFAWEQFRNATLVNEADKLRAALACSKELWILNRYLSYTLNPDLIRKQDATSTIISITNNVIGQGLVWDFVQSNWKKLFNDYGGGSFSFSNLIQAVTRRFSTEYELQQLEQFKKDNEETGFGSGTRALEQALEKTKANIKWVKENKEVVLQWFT

[2] = target: human aminopeptidase N ectodomain K379A (human) (UniProt P15144)
Sequence of human aminopeptidase N ectodomain K379A (human) (P15144 62-963 K379A): as the sequence (P15144 62-963 Y316A) above, with A255Y, K318A counted along it

[3] = target: porcine aminopeptidase N ectodomain W424A (pig) (UniProt P15145)
Sequence of porcine aminopeptidase N ectodomain W424A (pig) (P15145 58-961 W424A): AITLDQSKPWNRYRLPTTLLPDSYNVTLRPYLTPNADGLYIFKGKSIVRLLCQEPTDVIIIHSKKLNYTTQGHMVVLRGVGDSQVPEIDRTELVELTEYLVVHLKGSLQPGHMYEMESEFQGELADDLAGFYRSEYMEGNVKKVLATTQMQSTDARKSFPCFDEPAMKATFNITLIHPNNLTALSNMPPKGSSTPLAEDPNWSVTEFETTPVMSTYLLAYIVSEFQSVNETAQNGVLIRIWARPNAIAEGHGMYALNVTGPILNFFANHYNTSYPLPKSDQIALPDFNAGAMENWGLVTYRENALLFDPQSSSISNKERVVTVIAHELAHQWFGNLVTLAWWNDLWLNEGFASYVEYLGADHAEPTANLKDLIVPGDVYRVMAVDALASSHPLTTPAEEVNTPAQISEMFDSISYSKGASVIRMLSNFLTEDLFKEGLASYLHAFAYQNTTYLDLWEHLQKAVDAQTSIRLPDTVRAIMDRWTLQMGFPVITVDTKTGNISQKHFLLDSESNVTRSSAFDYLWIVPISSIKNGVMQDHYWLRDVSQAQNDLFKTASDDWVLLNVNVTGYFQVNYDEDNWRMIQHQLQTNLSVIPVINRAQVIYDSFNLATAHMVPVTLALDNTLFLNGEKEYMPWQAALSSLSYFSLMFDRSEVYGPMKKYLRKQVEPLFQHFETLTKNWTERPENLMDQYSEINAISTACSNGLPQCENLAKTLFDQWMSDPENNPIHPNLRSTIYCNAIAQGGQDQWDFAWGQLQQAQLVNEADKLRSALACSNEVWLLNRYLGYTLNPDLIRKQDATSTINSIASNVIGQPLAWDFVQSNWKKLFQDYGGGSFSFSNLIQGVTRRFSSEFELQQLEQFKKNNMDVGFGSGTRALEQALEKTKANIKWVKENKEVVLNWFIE

[4] = target: porcine aminopeptidase N ectodomain E421A (pig) (UniProt P15145)
Sequence of porcine aminopeptidase N ectodomain E421A (pig) (P15145 58-961 E421A): as the sequence (P15145 58-961 W424A) above, with E364A, A367W counted along it

[5] = target: human aminopeptidase N ectodomain E745A (human) (UniProt P15144)
Sequence of human aminopeptidase N ectodomain E745A (human) (P15144 62-963 E745A): as the sequence (P15144 62-963 Y316A) above, with A255Y, E684A counted along it

[6] = target: human aminopeptidase N ectodomain E426A (human) (UniProt P15144)
Sequence of human aminopeptidase N ectodomain E426A (human) (P15144 62-963 E426A): as the sequence (P15144 62-963 Y316A) above, with A255Y, E365A counted along it

[7] = target: human aminopeptidase N ectodomain, wild type (human) (UniProt P15144)
Sequence of human aminopeptidase N ectodomain, wild type (human) (P15144 62-963): as the sequence (P15144 62-963 Y316A) above, with A255Y counted along it

[8] = target: human aminopeptidase N ectodomain E742A (human) (UniProt P15144)
Sequence of human aminopeptidase N ectodomain E742A (human) (P15144 62-963 E742A): as the sequence (P15144 62-963 Y316A) above, with A255Y, E681A counted along it

[9] = target: porcine aminopeptidase N ectodomain, wild type (pig) (UniProt P15145)
Sequence of porcine aminopeptidase N ectodomain, wild type (pig) (P15145 58-961): as the sequence (P15145 58-961 W424A) above, with A367W counted along it

[10] = target: human aminopeptidase N ectodomain H789A (human) (UniProt P15144)
Sequence of human aminopeptidase N ectodomain H789A (human) (P15144 62-963 H789A): as the sequence (P15144 62-963 Y316A) above, with A255Y, H728A counted along it

[11] = target: human aminopeptidase N ectodomain W429A (human) (UniProt P15144)
Sequence of human aminopeptidase N ectodomain W429A (human) (P15144 62-963 W429A): as the sequence (P15144 62-963 Y316A) above, with A255Y, W368A counted along it

In the case of “PDCoV RBD (receptor binding domain of the porcine deltacoronavirus spike protein), wild type (domain or fragment)”, the Kd [1] is reported as 35.7 µM and 38.5 µM, the Kd [2] is reported as 516 µM and 371 µM and the Kd [3] is reported as 113 µM and 119 µM. The Kd [4] was 103 µM and 146 µM, the Kd [5] was 3.13 µM and 3 µM and the Kd [6] was 305 µM and 362 µM. For the same substance, the Kd [7] was 3.76 µM and 3.66 µM, the Kd [8] was 14.3 µM and 13.2 µM and the Kd [9] was 42 µM and 46.5 µM. The Kd [10] was 6.47 µM and 6.03 µM and the Kd [11] was 158 µM and 97 µM.

Source: publication PMC8933513 (2022)
